{"source": "patent US20180030137A1", "about": "(ADURO BIOTECH HOLDINGS EUROPE B V, published 2018)", "binders": {"B1": {"name": "hPD1.29H5L4 (antibody, V domains shown)", "VH": "EVQLVQSGAEVKKPGASVKVSCKASGYIFTTYYIHWVKQAPGKGLEWIGWIFPGDVSTQYNEKFQDKATITVDKSASTAYMQLSSLRSEDTAVYYCTREAYDYAVYWGQGTLVTVSS", "VL": "DIQMTQAPSSLSASVGDRVTITCKASQNVDTNVAWFQQKPGKAPKSLIFSASYRYSGVPSRFSGSGSGTDFTLTISSLQPEDFATYYCQQYNNYPFTFGGGTKLEIK", "notes": "Expressed as human IgG4, kappa with the stabilizing S241P (Kabat) hinge mutation in HEK293 cells; also called humanized PD-1 antibody hPD1.29H5L4"}}, "key": {"[1]": {"biological_target": "T1, Macaca fascicularis PD-1 (Swiss-Prot entry B0LAJ3), full length, on cells (Macaca fascicularis, UniProt Q15116 25-288 (human entry))", "T1 construct": "Full length open reading frame transiently expressed on CHO-K1 cells; also endogenous PD-1 on CD3/CD28-stimulated cynomolgus PBMCs; No signal peptide limits are stated for the cynomolgus entry; also called cyno PD-1; cynomolgus PD-1", "T1 chain": "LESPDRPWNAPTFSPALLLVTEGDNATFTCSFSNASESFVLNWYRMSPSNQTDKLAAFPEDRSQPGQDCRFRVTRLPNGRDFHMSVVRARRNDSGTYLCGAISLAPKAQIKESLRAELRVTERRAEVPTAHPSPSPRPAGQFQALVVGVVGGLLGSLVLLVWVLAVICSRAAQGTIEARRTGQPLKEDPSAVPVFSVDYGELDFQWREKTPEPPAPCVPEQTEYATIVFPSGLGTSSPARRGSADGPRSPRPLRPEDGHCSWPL", "experiment": "flow cytometry on CD3/CD28-stimulated cynomolgus PBMCs, three animals", "procedure": "(§1) To this end Macacaca fascicularis (cynomolgus) blood was diluted 1:1 with PBS and added to 50 ml tubes containing 13 ml Lymphoprep 95%/PBS 5%. Cells were centrifuged for 30′ at 450 g and 20° C. without brake. Next, plasma was removed by aspiration and PBMCs were recovered from the plasma/Ficoll interface. PBMCs were washed twice times in PBS. Cells were frozen in liquid nitrogen and retrieved from the freezer on the day of the experiment. Since endogenous expression of PD-1 on resting T cells is low thus the thawed PBMCs were stimulated with αCD3/αCD28 coated beads (Gibco) for 48 hours."}, "[2]": {"biological_target": "T2, Human PD-1 (Swiss-Prot entry Q15116), full length, on cells (human, UniProt Q15116 21-288)", "T2 construct": "Full length open reading frame of hPD-1 stably expressed on CHO-K1 cells; also endogenous PD-1 on CD3/CD28-stimulated human CD3+ T cells and PD-1 on transfected Jurkat cells; also called hPD-1; hPDCD1", "T2 sequence (Q15116 21-288, one chain of several)": "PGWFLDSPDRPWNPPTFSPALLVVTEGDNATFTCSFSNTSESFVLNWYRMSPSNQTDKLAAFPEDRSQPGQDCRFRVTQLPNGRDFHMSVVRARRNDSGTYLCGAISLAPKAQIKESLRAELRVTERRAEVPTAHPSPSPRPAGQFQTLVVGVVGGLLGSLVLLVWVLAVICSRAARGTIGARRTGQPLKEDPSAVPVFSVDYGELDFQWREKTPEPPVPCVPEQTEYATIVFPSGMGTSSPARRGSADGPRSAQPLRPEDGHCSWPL", "experiment": "CELISA on CHO-K1.hPDCD1 cells; blocking of biotinylated hPD-L1 Fc", "procedure": "To further characterize these mutant hPD-1 antibodies they were tested for binding to hPD-1 in CELISA format using CHO-K1 cells (American Type Culture Collection, Manassas, Va.), stably transfected with cDNA encoding the full length open reading frame of hPDCD1 (hPD-1), subcloned into the pCI-neo vector (Promega). Parental CHO-K1 or CHO-K1.hPDCD1 cells were seeded in culture medium (DMEM-F12 (Gibco) with 10% Fetal Bovine Serum (Hyclone) and Pen/Strep (Gibco)) in tissue culture plates and incubated for 48 hours at 37° C. Subsequently culture medium was removed and cells were incubated for 1 hour at 37° C. with the mutant hPD-1 antibodies (10 μg/ml (=66 nM) and dilutions thereof). Next, cells were washed with Phosphate-Buffered Saline/0.05% Tween (PBST) and incubated for 1 hour at 37° C. with Goat-anti-human IgG-HRP (Southern Biotech). Subsequently, cells were washed 3 times with PBST and anti-hPD1 immunoreactivity was visualized with 100 al TMB Stabilized Chromagen (Invitrogen). Reactions were stopped with 100 al 0.5 M H2SO4 and absorbances were read at 450 and 610 nm. […] Blockade of hPD-L1 binding by the mutant hPD-1 antibodies was tested in CELISA format. […] Reactions were stopped with 100 al 0.5 M H2SO4 and absorbances were read at 450 and 610 nm. Calculated IC50 values in Table 12 for the blockade of hPD-L1 represent the concentration at which half of the inhibition is observed."}, "[3]": {"biological_target": "T1, Macaca fascicularis PD-1 (Swiss-Prot …)", "experiment": "flow cytometry, Binding (%), on anti-CD3/anti-CD28 stimulated cynomolgus PBMCs, animal #2", "procedure": "as §1"}, "[4]": {"biological_target": "T2, Human PD-1 (Swiss-Prot entry Q15116), …", "experiment": "flow cytometry, Binding (%), on anti-CD3/anti-CD28 stimulated human CD3+ T cells, donor #2", "procedure": "(§2) Cells were stored in liquid nitrogen and retrieved from the freezer on the day of the experiment. Since endogenous expression of hPD-1 on resting T cells is low, the thawed CD3+ T cells were stimulated with αCD3/αCD28 coated beads (Gibco) for 48 hours."}, "[5]": {"biological_target": "T2, Human PD-1 (Swiss-Prot entry Q15116), …", "experiment": "flow cytometry on CD3/CD28-stimulated human CD3+ T cells, three donors; CD3/CD28 stimulated human T cells, three donors", "procedure": "as §2"}, "[6]": {"biological_target": "T1, Macaca fascicularis PD-1 (Swiss-Prot …)", "experiment": "flow cytometry, Binding (%), on anti-CD3/anti-CD28 stimulated cynomolgus PBMCs; animal #1 or #3, same marker in the legend", "procedure": "as §1"}, "[7]": {"biological_target": "T2, Human PD-1 (Swiss-Prot entry Q15116), …", "experiment": "flow cytometry, Binding (%), on anti-CD3/anti-CD28 stimulated human CD3+ T cells; donor #1 or #3, same marker in the legend", "procedure": "as §2"}}, "note": "Values joined by “and” are separate entries in the source; they are usually repeats but may differ in a detail not shown here. Equal values may be shown once.", "data": [{"binder": "B1", "values": [{"measurement": "EC50", "setting": "[1]", "value": 1.6, "unit": "nM"}, {"measurement": "IC50", "setting": "[2]", "value": 0.7, "unit": "nM"}, {"measurement": "EC50 (read off the curve)", "setting": "[3]", "value": "~2", "unit": "nM"}, {"measurement": "EC50 (read off the curve)", "setting": "[4]", "value": "~0.2", "unit": "nM"}, {"measurement": "EC50", "setting": "[5]", "value": 0.27, "unit": "nM"}, {"measurement": "EC50 (read off the curve)", "setting": "[6]", "value": "~1 nM and ~2 nM"}, {"measurement": "EC50 (read off the curve)", "setting": "[7]", "value": "~0.2 nM and ~0.3 nM"}]}]}
